We go through 4 molecules from patent US20230226096A1 (Orna Therapeutics, Inc., priority 2020, published 2023).

The chains are these.
B1: Theiler's disease-associated virus (nucleic acid)
DNA: TGATACCGTGTCCCGGTACGACCTCGCGCGTCCCCAAGCTCGCCCTGAGGGGGGAGCGTAAGGGCGCGTAGTGGGGTAGCCCCCCAAACCGAGCCACCCTAGTGAGTGACTTTAGAATGGTTAGGGAGACTACCGCCTTCGCTGTTTGGGGACCTAATGATCCGCGTGCCAGGGTTCTTCGGGTAAATCCCGGCGCGGTGTTTTGGGTTCAGGGCAGTAGGGGCAGACGGGCCAGCAGTCGCTGGTTCCTGGTACCACCACCCTATCCGGACGACCTCCCTCACGAAAGGTCGCCACGGTCTGTGGCTCGACGACGCCTATAATTCAGTCCGAGGGGCGCAGCCCTCGTTAAACTTAGGCAAGGTTCCTCGCCATTGATTTGGCCAGGGGTTTAAGTGAACGCCGCCCTTTTAATGTTTAATAGGGTTCTTTCCCGGCGGGTTGACAAACACTTCCCTGGGCTCTTCGTTGGCCTCGGTTCCTTGATGCTTCGGCACCCATGAGCGCACAGGGGGGGGACCCTGCGACAGTCCGCCAAGAGGAAAATCCTTCGGGTGACCTCGTGCGCAACCCAATCCCTTCTTCTTCCACATGGCGTGTCTGTGGTGCATGCTGTG
B2: Rosavirus C NFSM6F (nucleic acid)
DNA: CAGGGAGATCTCCATGAATAATCTTTTCCACCCTCTTTAGCGTCTATGCTATTGAGGACGGGTTGGAGCCCCGTTGACCCAGCGTCAGAGTGTGTCGGTAGCAGGCTTTCTGCTCTCGCCCCATGCCGGCCACACCTCCCATTAGTGATGTGAAGGTTGTAAGTTACATGTGAAAAGGTTTCTAATAATTGAGCTGAATGTAGCGATTACCTAAGGTGAGCGGATTCCCCCACGTGGTAACACGTGCCTCTCAGGCCAAAAGCCAAGGTGTTAAAAGCACCCCTTAGGTAGGCCACTACCCCGTGGCCTCAGTTCTCTTAGAAGATTCACTTAGTAGTGTGTGCACTGGCAACTCTTAAGCAGAGCTAGTGAGTGGGCTAAGGATGCCCTGAAGGTACCCGCAGGTAACGTTAAGACACTGTGGATCTGATCAGGGGCTCGAGTGCTGAAGCTTTACAGAGGTAGCTCGAGTTAAAAAACGTCTATGCCCCTCCCCCACGGGAGTGGGGGTTCCCCCACACCAATTTTAGATTGCACT
modifications: Rosavirus C
B3: Pegivirus K (nucleic acid)
DNA: AGAATGGTGTGATCCGTCGCCGCTCCAGCGGAAAGCGGGCGGGATCTAGTGGTTAGGGTTGTTCGCGTAAATCCCACACTAGTGGTACGCTCGTATAACGTGGGAGCAGCCGGTGGGGTCGACCCCCCACCTGGCGGCTGCTGAGCACCGGACGAAGCGCGGGGGGTGAACGCTAACCCGCGGCCCGGGCTGCCAACGTTAGGCACGTCTTGGCTGGAAGACGTTAAACACAGGGCCCCCCCTCAACCCTGATCCGAGGCCAGAGACCAAGGTACGCCGCCCTTTTAAAGGCGTTACTCGTCCAATAGGATCTCTCCGGCGGGTTGTCAAACCTTGCTGGCCCTGGTGATGGTTACGGGAGGGGGTGGGGCGGGGAGTAGAAGCCCCGCCCGGCATGGGGGTACCAAGCTCGGCACGCCCAGCACGCGTGGCGTAGGGGAAAAATCCTTCGGGTGACCCCTGGTACCATAAAGTAATTAACATGAGCATGCCGCTAGGGTGTGCTTTTTCTTCCTTCCTTGGGAAGGCGGTGGCACC
modifications: Pegivirus K
B4: Rodent pegivirus (nucleic acid, listed as Pegivirus sp.)
DNA: GGACTTCGGTCCCCCTGTTACTCTGCGAGCCACCGCAGAGCCAGGGTTGGTACGCCCGAGGTGTTAGACCCCGGCCGAAAGCTCCTAACCATGGGGTTAGTAGGACGTGGTAAATGCCACTGAGGGGTTGGAGAGCTGGTAGAGCGAGTAAGTCGGCGTAAGGCCCGAGTACGGGCCTCCCAGCCCGGGTCAGCCTAAACCTGGCTGTGATACCCGGTGCATGGAGGGCGTGTCCCAACGCTCGATCGCTGTAGGGTGGGTCCCTGCAGTTGGGTGTGGCTACCCTGCTCGTACTGCTTGATAGAGTCCCGGCGGACGGACCAGCTCTCGTCAGTCCGTGGAGTTGCAC

In this data set the test system is HEK293 cells. The class given is cell-based, human. Particulars: luminescence from secreted Gluc in supernatant 24 hours after transfection of HEK293 cells; circular RNA encoding Gluc with the named IRES (UTR truncated to 675 nt).
For the molecule B1, the Expression came to 7.84E+04.
With B2, the Expression came to 6.84E+05.
As to B3, the Expression came to 8.07E+04.
The figure for B4 is 1.79E+05.
